{"source": "paper PMC3806850", "key": {"[1]": {"molecular_target": "5T4Fab(V18)-SEA (not stated | not stated (staphylococcal)) (UniProt P0A0L2)", "sequence (P0A0L2 whole entry, looked up)": "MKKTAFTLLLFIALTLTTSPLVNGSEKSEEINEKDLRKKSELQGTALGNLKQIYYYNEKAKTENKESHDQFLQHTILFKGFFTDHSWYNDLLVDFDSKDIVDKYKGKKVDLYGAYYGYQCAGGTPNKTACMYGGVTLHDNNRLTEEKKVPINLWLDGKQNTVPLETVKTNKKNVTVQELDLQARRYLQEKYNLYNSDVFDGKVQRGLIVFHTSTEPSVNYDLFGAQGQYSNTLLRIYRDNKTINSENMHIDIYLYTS", "assay": "SPR"}, "[2]": {"molecular_target": "C215Fab-SEE (not stated | not stated (staphylococcal)) (UniProt P12993)", "assay": "SPR"}}}
{"substance": "Recombinant soluble human MHC class II (HLA-DR1) in complex with HA peptide (from UniProt P01903) (peptide-MHC)", "values": [{"measurement": "Kd", "setting": "[1]", "result": 400, "unit": "nM"}, {"measurement": "koff", "setting": "[1]", "result": 0.0011, "unit": "s⁻¹"}, {"measurement": "kon", "setting": "[1]", "result": 2800, "unit": "M⁻¹ s⁻¹"}, {"measurement": "Kd", "setting": "[2]", "result": 1300, "unit": "nM"}, {"measurement": "koff", "setting": "[2]", "result": 0.0029, "unit": "s⁻¹"}, {"measurement": "kon", "setting": "[2]", "result": 2300, "unit": "M⁻¹ s⁻¹"}]}
